Source: patent publication US20180291096A1 (Janssen / Centocor, published 2018)
Read-outs that look alike come from different tables or passages of the source.

B1: MOR05059 Fab (Fab, V domains shown)
VH: QVQLVQSGAEVKKPGESLKISCKGSGYSFSNYWIGWVRQMPGKGLEWMGIIDPSNSYTNYSPSFQGQVTISADKSISTAYLQWSSLKASDTAMYYCARWYYKPFDVWGQGTLVTVSS
VL: DIVLTQPPSVSGAPGQRVTISCTGSSSNIGSGYDVHWYQQLPGTAPKLLIYGNSKRPSGVPDRFSGSKSGTSASLAITGLQSEDEADYYCASWTDGLSLVVFGGGTKLTVL
notes: Fab
B2: MOR05058 Fab (Fab, V domains shown)
VH: QVQLVQSGAEVKKPGESLKISCKGSGYSFSNYWIGWVRQMPGKGLEWMGIIDPSNSYTNYSPSFQGQVTISADKSISTAYLQWSSLKASDTAMYYCARWYYKPFDVWGQGTLVTVSS
VL: DIVLTQPPSVSGAPGQRVTISCTGSSSNIGSGYDVHWYQQLPGTAPKLLIYGNSKRPSGVPDRFSGSKSGTSASLAITGLQSEDEADYYCSSWTDTPNMIVFGGGTKLTVL
notes: Fab
B3: MOR05053 Fab (Fab, V domains shown)
VH: QVQLVESGGGLVQPGGSLRLSCAASGFTFSSFGMSWVRQAPGKGLEWVSNIEHKYTSYTTYYAASVKGRFTISRDNSKNTLYLQMNSLRAEDTAVYYCARYWGTPYLMQFDNWGQGTLVTVSS
VL: DIALTQPASVSGSPGQSITISCTGTSSDVGGYNSVSWYQQHPGKAPKLMIYSVSSRPSGVSNRFSGSKSGNTASLTISGLQAEDEADYYCSSYDTNKPLVVFGGGTKLTVL
notes: Fab
B4: MOR05050 Fab (Fab, V domains shown)
VH: QVQLVESGGGLVQPGGSLRLSCAASGFTFSSFGMSWVRQAPGKGLEWVSSIEHKYTGYTTYYAAPVKGRFTISRDNSKNTLYLQMNSLRAEDTAVYYCARYWGTPYLMQFDNWGQGTLVTVSS
VL: DIALTQPASVSGSPGQSITISCTGTSSDVGGYNSVSWYQQHPGKAPKLMIYSVSSRPSGVSNRFSGSKSGNTASLTISGLQAEDEADYYCSSYDTNKPLVVFGGGTKLTVL
notes: Fab
B5: MOR05047 Fab (Fab, V domains shown)
VH: QVQLVESGGGLVQPGGSLRLSCAASGFTFSSFGMSWVRQAPGKGLEWVSNIEHKYLGYATSYAASVKGRFTISRDNSKNTLYLQMNSLRAEDTAVYYCARYWGTPYLMQFDNWGQGTLVTVSS
VL: DIALTQPASVSGSPGQSITISCTGTSSDVGGYNSVSWYQQHPGKAPKLMIYSVSSRPSGVSNRFSGSKSGNTASLTISGLQAEDEADYYCSSYDTNKPLVVFGGGTKLTVL
notes: Fab
B6: MOR05048 Fab (Fab, V domains shown)
VH: QVQLVESGGGLVQPGGSLRLSCAASGFTFSSFGMSWVRQAPGKGLEWVSNIEHKFMGYTTYYAAGVKGRFTISRDNSKNTLYLQMNSLRAEDTAVYYCARYWGTPYLMQFDNWGQGTLVTVSS
VL: DIALTQPASVSGSPGQSITISCTGTSSDVGGYNSVSWYQQHPGKAPKLMIYSVSSRPSGVSNRFSGSKSGNTASLTISGLQAEDEADYYCSSYDTNKPLVVFGGGTKLTVL
notes: Fab
B7: MOR05039 Fab (Fab, V domains shown)
VH: QVQLVESGGGLVQPGGSLRLSCAASGFTFSSFGMSWVRQAPGKGLEWVSNIEHKYLNYATYYAASVKGRFTISRDNSKNTLYLQMNSLRAEDTAVYYCARYWGTPYLMQFDNWGQGTLVTVSS
VL: DIALTQPASVSGSPGQSITISCTGTSSDVGGYNSVSWYQQHPGKAPKLMIYSVSSRPSGVSNRFSGSKSGNTASLTISGLQAEDEADYYCSSYDTNKPLVVFGGGTKLTVL
notes: Fab
B8: MOR05052 Fab (Fab, V domains shown)
VH: QVQLVESGGGLVQPGGSLRLSCAASGFTFSSFGMSWVRQAPGKGLEWVSSIEHKYLSYTTFYAASVKGRFTISRDNSKNTLYLQMNSLRAEDTAVYYCARYWGTPYLMQFDNWGQGTLVTVSS
VL: DIALTQPASVSGSPGQSITISCTGTSSDVGGYNSVSWYQQHPGKAPKLMIYSVSSRPSGVSNRFSGSKSGNTASLTISGLQAEDEADYYCSSYDTNKPLVVFGGGTKLTVL
notes: Fab

Tests used:
[1] = biological target: T1, recombinant human IL-23 (hrIL-23), produced at Centocor (human, UniProt P29460 23-328); experiment: SET
T1 construct: p19-p40 heterodimer; also called rhIL-23; huIL-23
T1 sequence 1: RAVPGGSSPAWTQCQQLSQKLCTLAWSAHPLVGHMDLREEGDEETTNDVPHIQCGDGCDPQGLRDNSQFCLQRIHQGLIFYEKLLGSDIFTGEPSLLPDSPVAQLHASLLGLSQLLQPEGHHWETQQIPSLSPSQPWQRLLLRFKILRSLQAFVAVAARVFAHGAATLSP
T1 sequence 2: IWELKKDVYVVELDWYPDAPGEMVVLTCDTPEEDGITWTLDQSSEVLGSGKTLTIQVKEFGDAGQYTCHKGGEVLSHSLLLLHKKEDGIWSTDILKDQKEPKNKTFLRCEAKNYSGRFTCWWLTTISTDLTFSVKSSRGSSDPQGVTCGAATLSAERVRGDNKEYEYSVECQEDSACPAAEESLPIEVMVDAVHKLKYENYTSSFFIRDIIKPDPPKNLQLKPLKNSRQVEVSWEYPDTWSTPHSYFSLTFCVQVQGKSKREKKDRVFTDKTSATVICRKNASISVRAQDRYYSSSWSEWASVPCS

[2] = biological target: T1, recombinant human IL-23 (hrIL-23), …; experiment: IL-23/IL-23R competition assay
[3] = biological target: T1, recombinant human IL-23 (hrIL-23), …; experiment: SET; remark: listed apart in the source
[4] = biological target: T1, recombinant human IL-23 (hrIL-23), …; experiment: IL-23/IL-23R competition assay; remark: listed apart in the source

Row | Binder | Kd [1] [nM] | IC50 [2] [nM] | Kd [3] [nM] | IC50 [4] [nM]
1 | B1 | 0.093 | 0.69 | – | –
2 | B2 | 0.033 | 0.11 | – | –
3 | B3 | – | – | 0.027 | 0.98
4 | B4 | – | – | 0.023 | 0.89
5 | B5 | – | – | 0.036 | 0.13
6 | B6 | – | – | 0.02 | 0.1
7 | B7 | – | – | 0.027 | 0.1
8 | B8 | – | – | 0.01 | 0.58
